Tests used:
CD25 [1] = target: T1, CD25 (human, UniProt P01589 22-272); test: flow cytometry on SU-DHL-1 cells (surface CD25), average of four experiments
T1 construct: whole, on cells; Endogenous CD25 on cell lines; also called surface CD25 on Karpas299 and SU-DHL-1 cells
T1 sequence (looked up): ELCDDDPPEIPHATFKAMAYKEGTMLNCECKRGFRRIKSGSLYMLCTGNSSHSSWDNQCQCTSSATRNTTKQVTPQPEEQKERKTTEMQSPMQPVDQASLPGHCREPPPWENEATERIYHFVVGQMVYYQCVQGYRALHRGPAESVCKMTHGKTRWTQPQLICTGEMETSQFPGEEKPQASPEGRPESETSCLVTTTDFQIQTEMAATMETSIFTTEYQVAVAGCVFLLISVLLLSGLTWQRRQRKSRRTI
Experimental: (§1) Karpas299 and SU-DHL-1 anaplastic large cell lymphoma (ALCL)-derived cell lines have been previously reported to express CD25 (2,3). To confirm their expression profile, CD25 surface expression was analyzed by flow cytometry.
(§2) Surface CD25 expression on Karpas and SU-DHL-1 was determined by flow cytometry. Graphs represent the average of three (Karpas299) or four independent experiments (SU-DHL-1). EC₅₀ values are reported in ng/ml.

CD25 [2] = target: T1, CD25; test: flow cytometry on Karpas299 cells (surface CD25), average of three experiments
Experimental: as §1, §2

B1: HuMax-TAC (antibody, IgG1, V domains shown)
VH: QVQLVQSGAEVKKPGSSVKVSCKASGGTFSRYIINWVRQAPGQGLEWMGRIIPILGVENYAQKFQGRVTITADKSTSTAYMELSSLRSEDTAVYYCARKDWFDYWGQGTLVTVSS
VL: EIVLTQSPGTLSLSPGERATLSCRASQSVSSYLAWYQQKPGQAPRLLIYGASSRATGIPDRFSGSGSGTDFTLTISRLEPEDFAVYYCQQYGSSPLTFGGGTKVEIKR
notes: also called AB12; Antibody AB12
- EC50 (CD25 [1]): 0.0341 µg/mL
- EC50 (CD25 [2]): 0.0202 µg/mL

Reference: patent US20150283263A1 (ADC THERAPEUTICS S A, published 2015)
